Assay results: article PMC10611751 (2023)

B1: E-cadherin residues 828-842 (site-2) [mouse] / Ankyrin-G 24 ANK repeats (residues 38-855) [not stated] (parent complex)
chain 1: PYDSLLVFDYEGSGS
chain 2: KSDANASYLRAARAGHLEKALDYIKNGVDVNICNQNGLNALHLASKEGHVEVVSELLQREANVDAATKKGNTALHIASLAGQAEVVKVLVTNGANVNAQSQNGFTPLYMAAQENHLEVVRFLLDNGASQSLATEDGFTPLAVALQQGHDQVVSLLLENDTKGKVRLPALHIAARKDDTKAAALLLQNDTNADIESKMVVNRATESGFTPLHIAAHYGNINVATLLLNRAAAVDFTARNDITPLHVASKRGNANMVKLLLDRGAKIDAKTRDGLTPLHCGARSGHEQVVEMLLDRAAPILSKTKNGLSPLHMATQGDHLNCVQLLLQHNVPVDDVTNDYLTALHVAAHCGHYKVAKVLLDKKANPNAKALNGFTPLHIACKKNRIRVMELLLKHGASIQAVTESGLTPIHVAAFMGHVNIVSQLMHHGASPNTTNVRGETALHMAARSGQAEVVRYLVQDGAQVEAKAKDDQTPLHISARLGKADIVQQLLQQGASPNAATTSGYTPLHLSAREGHEDVAAFLLDHGASLSITTKKGFTPLHVAAKYGKLEVASLLLQKSASPDAAGKSGLTPLHVAAHYDNQKVALLLLDQGASPHAAAKNGYTPLHIAAKKNQMDIATSLLEYGADANAVTRQGIASVHLAAQEGHVDMVSLLLSRNANVNLSNKSGLTPLHLAAQEDRVNVAEVLVNQGAHVDAQTKMGYTPLHVGCHYGNIKIVNFLLQHSAKVNAKTKNGYTPLHQAAQQGHTHIINVLLQNNASPNELTVNGNTALAIARRLGYISVVDTLKVVTEEIMTTTTITEKHKMNVPETMNEVLDMS
B2: E-cadherin residues 755-770 (site-1) [mouse] / Ankyrin-G 24 ANK repeats (residues 38-855) [not stated] (parent complex)
chain 1: YYYDEEGGGEEDQDFD
chain 2: B1 chain 2
B3: E-cadherin residues 854-869 (site-3) [mouse] / Ankyrin-G 24 ANK repeats (residues 38-855) [not stated] (parent complex)
chain 1: ESDQDQDYDYLNEWGN
chain 2: B1 chain 2

Variants of: B1
Assay: ITC; parent: 1.9e+03 nM

Row | Variant | Kd [µM]
1 | chain 1 Y2A | 1.7
2 | chain 1 Y10A | 9.5

Variants of: B2
Assay: ITC; parent: 900 nM

Row | Variant | Kd [µM]
3 | chain 1 Y2A | 2.2
4 | chain 1 Y2A, chain 1 Y3A | 7.1
5 | chain 1 Y3A | 2.2

Other lines, results leading:

Row | Kd [µM] | Variant
6 | 5 | chain 1 Y1A
7 | 4.2 | chain 1 Y1A, chain 1 Y2A
8 | 4.1 | chain 1 Y1A, chain 1 Y3A

Variants of: B3
Assay: ITC; parent: 1.8e+03 nM

Row | Variant | Kd [µM]
9 | chain 1 W14A | 3.9
10 | chain 1 Y10A | 3.9
11 | chain 1 Y8A | 3.2
12 | chain 1 Y8A, chain 1 Y10A | 5.8
